In the nanobody polyreactivity screen of Harvey et al. (2022):

Assay: yeast display, Sf9 membrane polyspecificity reagent, FACS + sequencing; frameworks hold sequencing errors
Procedure, shortened: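 Polyreactivity labels are assigned by the sorting gate from which each nanobody was recovered. The gates were low and high (top ~1%), set on anti-HA fluorescence for expression and streptavidin fluorescence for reagent binding. Before sorting, galactose-induced (36–48 hours) yeast display cells were stained for 1 hour at 4 °C with 10% biotinylated, detergent-solubilized Sf9 membrane reagent.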

Sequence | polyreactivity (PSR sort gate)
QVQLVESGGGLLQAGGSLLLSCAASGSNFAYYAMGWYRQAPGKERELVAAITRGAGRTFYADSVKGRFTISRDNAKNTVYLQMNSLKQEDTAVYYCAADVSGSKYDYWGQGTQVTVSS | high polyreactivity
QVQLVESGGGLLQAGGSLRISCAASGFPYVMGWYRQAPGKARELVATITSGDSTNYADSVKGRFTISRDNAKNTVYLQMNSLKPEDTAVYYCNARYWGRYYKRVRYDYWGQGTKVTVSS | high polyreactivity
QVQLVESGGGLLQAGGSLRLISAASGGIFIRYAMGWYRQAPGKERALVAAITQSGAGTNYADSVKGRFTISRDNAKNTVYLQKYSLKPEDTAVYYCAKEALLPIRRLTHARTRYNFWGQGTQVTVSS | low polyreactivity
QVQLVESGGGLLQAGGSLRLSCAASGFIFADYMGWNRQAPGKERELVASISSTGSSTYADSVKGRFTISRDNPKNTVYLQMNSLKPEDTAVSYCAATGVWYSWYEYASEYDYWGLGTQVTVSS | high polyreactivity
QVQLVESGGGLLQAGGSLRLSCAASGFIFIQYAMGWYRQAPGKEREFVAAITGRGSSTYYADSVKGRFTISRDNAKNTVYLQMNSLKPEDTAVFYCAADRDSYIFYYYWSYDYWGQGTQVTVSA | high polyreactivity
QVQLVESGGGLLQAGGSLRLSCAASGFTFGGNAMGWYRQAPGKERELVAAITSRGGSTYYADSVKGRFTISRDNAKNTFYLQMYSLKPEDTAVYYCAAQFTTRYDWGQGTQVTVSS | high polyreactivity
QVQLVESGGGLLQAGGSLRLSCAASGFTFRVNAMGWYRQAPGKERELVASITVSDARTYYADSVKGRFTISRDNAKNTVYLQMNSLKPEDTAVYYCAADYKGAFTTDWSSEYEYWGQGTQVTVSS | low polyreactivity
QVQLVESGGGLLQAGGSLRLSCAASGFTFSTNAMGWYRQAPGKERDLVAAITWRGGSTYYADSVKGRFTISRDIAKKTVYVQLNSLKPEDTAVYYCAGRSRGSHVSYYKKFDYWGQGTHVTVSS | low polyreactivity
QVQLVESGGGLLQAGGSLRLSCAASGFTVYRYAMGWYRPEPGKERELGAAITWSGGSTYYADSVKGRFTISRDNAKKSVYFQMNSLKPEDTAVYYCAKETAPSRLPYGYWGQGTQVNVSS | low polyreactivity
QVQLVESGGGLLQAGGSLRLSCAASGHTLYRYARGWYRQAPGKERELVAAITSRGGSTFYADSVKGRFTISRDTAKNSVYLQMNRLQPEDTAVYYCNTARGTAPAHDYWGQGTQVTVSS | low polyreactivity
QVQLVESGGGLLQAGGSLRLSCAASGITFERNGMGWYRQAPGKERELVAAIRSGGSTYYADSVKGRFTISRDNAKNTVYLQMNTLKPEDTGVYYCAAVTQGGYTYLGDYWGQGTQVTVSS | low polyreactivity
QVQLVESGGGLLQAGGSLRLSCAASGITFVKYTMGWYRQAPGKERELVAAISRSDGRTYYADSVKGRFTISRDNAKNTVYLQMNSLQPEDTEVYYCNAVYGVIGKGYNYWGQGTQVTVSS | high polyreactivity
QVQLVESGGGLLQAGGSLRLSCAASGITFYYNTMGWYRQAPGKERELVASISGGCSTYYADSVKGRFTISRDNAKNTVFLQMKSLIPEDTAVYYCNAQGSLFRGWFDYDYWGQGTQVTVSS | low polyreactivity
QVQLVESGGGLLQAGGSLRLSCAASGRICRYYAMGGYRQAPGKERELVAGIRTSGGRTYADSVKGRFTISRDYAKNTVYLQMNSLKPEDTAVYYCAAGRRTLSMYYWGQGTQVTVSS | high polyreactivity
QVQLVESGGGLLQAGGSLRLSCAASGRIFNINAMGWYRQAPGKERELVAAISSGDSTYYADSVKGRFTISRDNAKNTVYLQMNSLKPEDSAVDYCNKDLYIWGHGTQVTVSS | low polyreactivity
QVQLVESGGGLLQAGGSLRLSCAASGRIFYGYTMVRYRQAPGKERELVASITIRGSRTYYADSVKGRFTISRDNAKNTVYLQMISQKPEDTAVSYCAADFVPARTVHRYDYWGQGTQVTVSS | low polyreactivity
QVQLVESGGGLLQAGGSLRLSCAASGRIKDNGMGWYIKAPGKERELVAAITLSAGRTYYADSVKGRFTISRDNAKNTVYLQMNSLKPEDTAVYYCAAQAERYGYEYWGQGTQVTVSS | low polyreactivity
QVQLVESGGGLLQAGGSLRLSCAASGRILFSYAMGWYRQAPGKERELVATISSGGRTNYADSVKGRFTISRDNAKNTVYLQMNSLKPEDTAVYYCNTEYLVWYAYDYGGQGTQVTVSS | low polyreactivity
QVQLVESGGGLLQAGGSLRLSCAASGRIYWNDMAWYRQAPGKERELVAAISWGGDRTYYADSVKGRFTISRDNAKNTVYLQMNSLKPEDTAVYYCNAPGYLTYDHSYDYWGQGTQVTVSS | low polyreactivity
QVQLVESGGGLLQAGGSLRLSCAASGRTFSYYAMGWYRQAPGKERELVAAISWRGGSTYYADSVKGRFTISRDNAKNTVYLQMNSLKPEDTAVYYCAALPRYALGEDYWGQGSQVTVSS | high polyreactivity
QVQLVESGGGLLQAGGSLRLSCAASGRTFWWNAMGWYRQAPGKERELVAVISYSGGSTYYADSVKGRFTISRDNAKNTVYLQMNSLKPEDTAVYYCAADLYSHTGYYWGQGTQVTVSS | high polyreactivity
